From US6528283 (INSTITUTE NATIONAL DE LA SANT ET DE LA RECHERCHE M DICALE, dated 2003)
Like-named read-outs stand apart in the source and are kept apart here.

B1: hD52 bait (GAL4 DNA-binding domain fused to full-length hD52, pAS2-1hD52) (other)
chain: MKLLSSIEQACDICRLKKLKCSKEKPKCAKCLKNNWECRYSPKTKRSMDRGEQGLLRTDPVPEEGEDVAATISATETLSEEEQEELRRELAKVEEEIQTLSQVLAAKEKHLAEIKRKLGINSLQELKQNIAKGWQDVTATSAYKKTSETLSQAGQKASAAFSSVGSVITKKLEDVKNSPTFKSFEEKVENLKSKVGGTKPAGGDFGEVLNSAANASATTTEPLPEKTQESL
notes: range 1-47; Fusion expressed in yeast; also called pAS2-1D52; full-length hD52 bait
B2: mD52(95-185) bait (GAL4 DNA-binding domain fused to the C-terminal half of mD52, pAS2-1mD52(95-185)) (other)
chain: MKLLSSIEQACDICRLKKLKCSKEKPKCAKCLKNNWECRYSPKTKRSAYKKTSETLSQAGQKASAAFSSVGSVITKKLEDVKNSPTFKSFEEKVENLKSKVGGAKPAGGDFGEVLNSTANATSTMTTEPPPEQMTESP
notes: range 1-47
B3: hD53 interactor (GAL4 activation domain fused to full-length hD53, pACT2hD53) (other)
chain: ANFNQSGNIADSSLSFTFTNSSNGPNLITTQTNSQALSQPIASSNVHDNFMNNEITASKIDDGNNSKPLSPGWTDQTAYNAFGITTGMFNTTTMDDVYNYLFDDEDTPPNPKKEMEAQAQGLLETEPLQGTDEDAVASADFSSMLSEEEKEELKAELVQLEDEITTLRQVLSAKERHLVEIKQKLGMNLMNELKQNFSKSWHDMQTTTAYKKTHETLSHAGQKATAAFSNVGTAISKKFGDMSYSIRHSISMPAMRNSPTFKSFEERVETTVTSLKTKVGGTNPNGGSFEEVLSSTAHASAQSLAGGSRRTKEEELQC

Tests used:
[1] = biological target: eukaryotic initiation factor 4AII library interactor (pAD-GAL4 construct) (human, UniProt P04386 761-881; Q14240 1-407, limits assumed); assay: yeast two-hybrid, retransfection of a library interactor in Hf7c
Description: Transformants were plated onto solid SD/-His-Trp-Leu (incorporating 35 mM 3-AT in the case of Y190 transformants) and incubated for up to 14 days at 30° C. […] Colonies which remained His+, and in the case of Y190 co-transformants, were also lacZ+, were re-streaked onto fresh plates to check that all colonies were of uniform phenotype. After 6 days incubation at 30° C., yeast colonies were directly harvested, and plasmid DNA was isolated and used to transfect XL1 Blue. Mini-preparations of plasmid DNA were performed for at least 5 XL1 Blue colonies per transfection, with the results of restriction digests differentiating potential interactors from bait plasmids. […] Phenotypes of resulting co-transfectants were assayed quantitatively and/or qualitatively as described above.

[2] = biological target: B3; assay: yeast two-hybrid, quantitative β-galactosidase assay in Y190
Description: Interactions between baits and interactors were assessed by qualitatively and/or quantitatively determining HIS3 and lacZ reporter gene activity in Y190 co-transfectants. […] For quantitative assessment of interactions, β-galactosidase activity was measured using the substrate o-nitrophenyl β-D-galactopyranoside (ONPG) in liquid cultures (SD/-His-Trp-Leu +35 mM 3-AT) of Y190 co-transfectants.

[3] = biological target: B1; assay: cell-based or functional assay
[4] = biological target: hD54-ins2 bait (GAL4 DNA-binding domain fused to hD54-ins2, pAS2-1hD54-ins2) (human, UniProt P04386 1-47 (Saccharomyces cerevisiae entry), limits assumed); assay: cell-based or functional assay
[5] = biological target: T1, mD52 bait (GAL4 DNA-binding domain fused to full-length mD52, pAS2-1mD52) (mouse, UniProt P04386 1-47 (Saccharomyces cerevisiae entry), limits assumed); assay: cell-based or functional assay
[6] = biological target: T2, GAL4 DNA-binding domain alone (empty pAS2-1 vector, negative control bait) (UniProt P04386 1-47, limits assumed); assay: cell-based or functional assay
T2 chain (looked up): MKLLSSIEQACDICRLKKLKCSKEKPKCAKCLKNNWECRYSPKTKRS

[7] = biological target: hD54+ins2 bait (GAL4 DNA-binding domain fused to hD54+ins2, pAS2-1hD54+ins2) (human, UniProt P04386 1-47 (Saccharomyces cerevisiae entry), limits assumed); assay: cell-based or functional assay
[8] = biological target: hD53 bait (GAL4 DNA-binding domain fused to full-length hD53, pAS2-1hD53) (human, UniProt P04386 1-47 (Saccharomyces cerevisiae entry), limits assumed); assay: cell-based or functional assay
[9] = biological target: B2; assay: cell-based or functional assay
[10] = biological target: mD52(1-95) bait (GAL4 DNA-binding domain fused to the N-terminal half of mD52, pAS2-1mD52(1-95)) (mouse, UniProt P04386 1-47 (Saccharomyces cerevisiae entry)); assay: cell-based or functional assay
[11] = biological target: T1, mD52 bait (GAL4 DNA-binding domain …); assay: cell-based or functional assay; remark: listed apart in the source

Binder	binding result [1]	binding result [2]	β-galactosidase activity, yeast two-hybrid (Y190) [3]	β-galactosidase activity, yeast two-hybrid (Y190) [4]	β-galactosidase activity, yeast two-hybrid (Y190) [5]	β-galactosidase activity, yeast two-hybrid (Y190) [6]	β-galactosidase activity, yeast two-hybrid (Y190) [7]	β-galactosidase activity, yeast two-hybrid (Y190) [8]	β-galactosidase activity, yeast two-hybrid (Y190) [9]	β-galactosidase activity, yeast two-hybrid (Y190) [10]	β-galactosidase activity, yeast two-hybrid (Y190) [11]
B1	no binding										
B2	no binding	no binding									
B3			15.2 β-galactosidase activity units (positive control = 1000)	17.6 β-galactosidase activity units (positive control = 1000)	6.07 β-galactosidase activity units (positive control = 1000)	0 β-galactosidase activity units (positive control = 1000)	11.7 β-galactosidase activity units (positive control = 1000)	18.1 β-galactosidase activity units (positive control = 1000)	0.5 β-galactosidase activity units (positive control = 1000)	6.95 β-galactosidase activity units (positive control = 1000)	5.44 β-galactosidase activity units (positive control = 1000)
